According to publication PMC8844116:

B1: Flag-RAGE wild type (LV-Flag-RAGE-wt, wild-type ctRAGE) [mouse] / mitogen-activated protein kinase kinase 3 (MKK3), endogenous in mouse hippocampus and HT22 cells [mouse (endogenous in hippocampus and in HT22)] (parent)
chain 1: GQNITARIGEPLVLSCKGAPKKPPQQLEWKLNTGRTEAWKVLSPQGGPWDSVARILPNGSLLLPATGIVDEGTFRCRATNRRGKEVKSNYRVRVYQIPGKPEIVDPASELTASVPNKVGTCVSEGSYPAGTLSWHLDGKLLIPDGKETLVKEETRRHPETGLFTLRSELTVIPTQGGTHPTFSCSFSLGLPRRRPLNTAPIQLRVREPGPPEGIQLLVEPEGGIVAPGGTVTLTCAISAQPPPQVHWIKDGAPLPLAPSPVLLLPEVGHEDEGTYSCVATHPSHGPQESPPVSIRVTETGDEGPAEGSVGESGLGTLALALGILGGLGVVALLVGAILWRKRQPRREERKAPESQEDEEERAELNQSEEAEMPENGAGGP
chain 2: MESPAASPPASLPQTKGKSKRKKDLRISCVSKPPVSNPTPPRNLDSRTFITIGDRNFEVEADDLVTISELGRGAYGVVEKVRHAQSGTIMAVKRIRATVNTQEQKRLLMDLDINMRTVDCFYTVTFYGALFREGDVWICMELMDTSLDKFYRKVLEKNMKIPEDILGEIAVSIVRALEHLHSKLSVIHRDVKPSNVLINKEGHVKMCDFGISGYLVDSVAKTMDAGCKPYMAPERINPELNQKGYNVKSDVWSLGITMIEMAILRFPYESWGTPFQQLKQVVEEPSPQLPADQFSPEFVDFTSQCLRKNPAERMSYLELMEHPFFTLHKTKKTDIAAFVKEILGEDS

Variants of: B1
Experiment: co-immunoprecipitation (IP: Flag-RAGE, IB: MKK3), optical density of blot
Settings: with mitogen-activated protein kinase kinase 3 (MKK3), HT22 cells with RAGE-shRNA knockdown, high glucose, n = 3, parent: 6, read off a plot

| Variant | response (fold change to HG + RAGE-shRNA group) |
| --- | --- |
| chain 1 R340A K341A R342A Q343A | 1.6 |

Same assay, conditions: with mitogen-activated protein kinase kinase 3 (MKK3), hippocampus of db/db mice with LV-RAGE-shRNA, n = 3, parent: 3, read off a plot

| Variant | response (fold change to db/db + RAGE-shRNA group) |
| --- | --- |
| chain 1 R340A K341A R342A Q343A | 1.4 |

Variants of: B1
Experiment: co-immunoprecipitation (IP: MKK3, IB: Flag-RAGE), optical density of blot
Settings: with mitogen-activated protein kinase kinase 3 (MKK3), HT22 cells with RAGE-shRNA knockdown, high glucose, n = 3, parent: 6.8, read off a plot

| Variant | response (fold change to HG + RAGE-shRNA group) |
| --- | --- |
| chain 1 R340A K341A R342A Q343A | 1.8 |

Same assay, conditions: with mitogen-activated protein kinase kinase 3 (MKK3), hippocampus of db/db mice with LV-RAGE-shRNA, n = 3, parent: 3.4, read off a plot

| Variant | response (fold change to db/db + RAGE-shRNA group) |
| --- | --- |
| chain 1 R340A K341A R342A Q343A | 1.9 |
